T1: SIP1 (TH1) prey protein (GAL4TAD fused to the 626 aa polypeptide encoded by th1 cDNA) (mouse, UniProt Q9R0G7 315-940, limits assumed)
T1 sequence: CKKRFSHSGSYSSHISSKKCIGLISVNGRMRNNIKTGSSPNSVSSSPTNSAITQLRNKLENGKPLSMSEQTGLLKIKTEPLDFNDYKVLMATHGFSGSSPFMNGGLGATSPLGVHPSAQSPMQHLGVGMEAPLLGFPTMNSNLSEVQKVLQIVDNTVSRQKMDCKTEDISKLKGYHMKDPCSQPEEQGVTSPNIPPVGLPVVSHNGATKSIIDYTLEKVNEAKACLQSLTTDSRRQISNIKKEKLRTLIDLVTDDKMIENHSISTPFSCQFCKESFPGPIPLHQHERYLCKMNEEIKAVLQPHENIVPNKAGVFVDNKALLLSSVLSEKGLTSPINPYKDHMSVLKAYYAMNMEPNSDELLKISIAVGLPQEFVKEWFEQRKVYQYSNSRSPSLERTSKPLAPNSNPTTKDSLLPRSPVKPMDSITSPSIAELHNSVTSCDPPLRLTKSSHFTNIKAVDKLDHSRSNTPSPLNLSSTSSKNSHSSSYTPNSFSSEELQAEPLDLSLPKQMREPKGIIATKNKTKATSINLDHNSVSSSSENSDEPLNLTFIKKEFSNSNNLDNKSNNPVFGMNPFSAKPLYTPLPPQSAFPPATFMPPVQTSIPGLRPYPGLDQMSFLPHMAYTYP

T2: TH72 prey protein (GAL4TAD fused in-frame to a partial SMAD4 starting at amino acid 252) (mouse, UniProt P97471 252-551, limits assumed)
T2 construct: Only the start (aa 252) is stated; the C-terminal end of the clone is not; also called TH72 (DPC4 or SMAD4); partial DPC-4 (SMAD4)
T2 sequence (looked up): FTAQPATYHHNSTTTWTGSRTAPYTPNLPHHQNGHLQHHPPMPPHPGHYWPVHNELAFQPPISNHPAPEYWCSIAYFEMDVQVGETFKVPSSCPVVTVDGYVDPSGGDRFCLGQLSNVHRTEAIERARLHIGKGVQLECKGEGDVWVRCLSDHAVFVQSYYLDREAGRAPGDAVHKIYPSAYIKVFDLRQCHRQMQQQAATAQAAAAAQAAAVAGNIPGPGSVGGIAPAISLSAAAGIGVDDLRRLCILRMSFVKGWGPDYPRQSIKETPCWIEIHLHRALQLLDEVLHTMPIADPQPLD

B1: Lamin (pLAM; Clontech) (other, UniProt P02545 66-230, looked up)
chain: SEEVVSREVSGIKAAYEAELGDARKTLDSVAKERARLQLELSKVREEFKELKARNTKKEGDLIAAQARLKDLEALLNSKEAALSTALSEKRTLEGELHDLRGQVAKLEAALGEAKKQLQDEMLRRVDAENRLQTMKEELDFQKNIYSEELRETKRRHETRLVEID
notes: Bought control bait plasmid

How the values were obtained:
Assay in all cases: yeast two-hybrid
[1] = molecular target: B1
[2] = molecular target: T3, Empty bait vector pGBT9 (GAL-4 DBD alone) (UniProt P04386 1-147)
T3 construct: Negative control bait; also called empty bait (i.e., GAL-4 DBD alone)
T3 sequence (P04386 1-147 limits assumed): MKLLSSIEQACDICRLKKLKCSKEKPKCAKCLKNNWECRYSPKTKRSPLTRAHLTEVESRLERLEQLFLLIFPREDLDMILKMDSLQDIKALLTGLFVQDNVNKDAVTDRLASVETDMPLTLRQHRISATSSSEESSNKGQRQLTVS

[3] = molecular target: T1, SIP1 (TH1) prey protein (GAL4TAD fused …)
[4] = molecular target: T2, TH72 prey protein (GAL4TAD fused …)

binding result [1] | binding result [2] | binding result [3] | binding result [4] | Binder
no binding | no binding |  |  | SIP7 prey protein (th74; partial open reading frame fused to the GAL4 transactivating domain in pACT2) (other, not shown: small tags and cut ends) TEPVRTDRRTEDQTATKERLLPPSGPLPRTPAPAPVTAPDTARCAVLAARHGRALSPGPRALAPSAQRCCPASGRAAETPASVGAGALRVGPAQPSQARQPTMLLLSPRSALVSVYCPQIFLLLSTAVTTLSSVVALGANIICNKIPGLAPRQRAICQSRPDAIIVIGEGAQMGIDECQHQFRFGRWNCSALGEKTVFGQELRVGSREAAFTYAITAAGVAHAVTAACSQGNLSNCGCDREKQGYYNQAEGWKWGGCSADVRYGIDFSRRFVDAREIKKNAGS
 |  | no binding | no binding | B1

— patent US20020035246A1 (VLAAMS INTERUNIVERSITAIR INSTITUUT VOOR BIOTECHNOLOGIE VZW, published 2002)
